According to PMC9050003, “N- and C-terminal regions of the small heat shock protein IbpA from Acholeplasma laidlawii competitively govern its oligomerization pattern and chaperone-like activity†” (RSC Advances, 2020):

Legend:
[1] = target: AlIbpAΔN12 (Acholeplasma laidlawii) (UniProt A9NFB2); test: SPR; BIAcore T200; His6-AlIbpA proteins immobilised on Ni2+-loaded NTA chip (FC2, about 2000 RU); His6-TnrA20 on FC1 as control, response difference FC2 − FC1; ADH 1.0 mg ml^−1 injected at 10 μl min^−1; 10 mM Na2HPO4, 150 mM NaCl, pH 7.4; KD calculated from the binding curve slopes
[2] = target: AlIbpAN11N12 (Acholeplasma laidlawii) (UniProt A9NFB2); test: as above
[3] = target: AlIbpASEPΔN25 (Acholeplasma laidlawii) (UniProt A9NFB2); test: as above
[4] = target: AlIbpAΔC14 (Acholeplasma laidlawii); test: as above
[5] = target: AlIbpAΔN25 (Acholeplasma laidlawii) (UniProt A9NFB2); test: as above
[6] = target: AlIbpASEPΔN12 (Acholeplasma laidlawii) (UniProt A9NFB2); test: as above
[7] = target: full-length recombinant AlIbpA (small heat shock protein IbpA from Acholeplasma laidlawii), His6-tagged (Acholeplasma laidlawii) (UniProt A9NFB2); test: as above
[8] = target: AlIbpAΔN25C14 (Acholeplasma laidlawii); test: SEC; Superdex 200 10/300, 0.5 ml min^−1, 1 mg ml^−1 protein, 100 μl injected; 50 mM NaCl, 50 mM KCl, 50 mM K2HPO4 pH 7.4; 30 °C; fractions as areas under the peaks; peaks also viewed by TEM
[9] = target: AlIbpAΔC14 (Acholeplasma laidlawii); test: as above
[10] = target: AlIbpAΔN12C14 (Acholeplasma laidlawii); test: as above
[11] = target: the molecule itself; test: as above
[12] = target: the molecule itself; test: as above; remark: listed apart in the source

**Q.** alcohol dehydrogenase (enzyme) was tested. Which Kd [1] did it give?
**A.** 3500 nM

**Q.** What about the Kd [2] of the same molecule?
**A.** 500 nM

**Q.** And the Kd [3]?
**A.** 3200 nM

**Q.** What about the Kd [4] of the same molecule?
**A.** 700 nM

**Q.** What about the Kd [5] of the same molecule?
**A.** 2200 nM

**Q.** What about the Kd [6] of the same molecule?
**A.** 7200 nM

**Q.** What about the Kd [7] of the same molecule?
**A.** 1600 nM

**Q.** Which fraction of the protein in I peak of the elution profile [8] does the source give for AlIbpAΔN25C14 (domain or fragment) here?
**A.** 1%

**Q.** What about the fraction of the protein in II peak of the elution profile [8] of the same molecule?
**A.** 50%

**Q.** Which fraction of the protein in I peak of the elution profile [9] does the source give for AlIbpAΔC14 (domain or fragment) here?
**A.** 7%

**Q.** And the fraction of the protein in II peak of the elution profile [9]?
**A.** 86%

**Q.** AlIbpAΔN12C14 (domain or fragment) was tested. Which fraction of the protein in I peak of the elution profile [10] did it give?
**A.** 1%

**Q.** And the fraction of the protein in II peak of the elution profile [10]?
**A.** 86%

B1: full-length recombinant AlIbpA (small heat shock protein IbpA from Acholeplasma laidlawii), His6-tagged (natural protein, UniProt A9NFB2 1-137, looked up)
chain: MLSLLNKNRSFFDDFFEDFNVLNPVTTSNLMRTDIKETQNGYSLSVELPGFKKEDVKVSLEDGYLTIEAHTSKNSETKDQATKYIRKERYEGTMKRSYYVGNLHLDEINGTFENGMLHIELPKETKKEPEKRYLELK
notes: small heat shock protein IbpA (AlIbpA) of Acholeplasma laidlawii PG8, full length; Legends call it AlIbpA-His6, the methods say the His6 tag is N-terminal; In solution a mixture of about 24-mer globules, fibrils and agglomerates; also called AlIbpA-His6; His6-IbpA; source: E. coli BL21(DE3), purified (Ni-NTA); also in E. coli BL21 pET-IbpA cells, cross-linked in the cells, crude cell extract; not …
**Q.** Which results are given for B1?
**A.** stoichiometry N [11]: ~24; fraction of the protein in I peak of the elution profile [12]: 23 ± 10.3%; fraction of the protein in II peak of the elution profile [12]: 74 ± 17.8%

B2: AlIbpASEP (natural protein, Acholeplasma laidlawii, UniProt A9NFB2 1-137, looked up)
chain: MLSLLNKNRSFFDDFFEDFNVLNPVTTSNLMRTDIKETQNGYSLSVELPGFKKEDVKVSLEDGYLTIEAHTSKNSETKDQATKYIRKERYEGTMKRSYYVGNLHLDEINGTFENGMLHIELPKETKKEPEKRYSEPK
notes: AlIbpA of Acholeplasma laidlawii PG8 with the C-terminal LEL motif substituted by SEP (L134 to S134, L136 to P136), length of the C-terminus kept; source: E. coli BL21(DE3), purified (Ni-NTA); not shown: His6, N-terminal, kept
**Q.** B2 was tested. Which “fraction of the protein in I peak of the elution profile” value [12] did it give?
**A.** 18 ± 4.4%

**Q.** And the “fraction of the protein in II peak of the elution profile” value [12]?
**A.** 56 ± 7.8%

B3: AlIbpAN11N12 (natural protein, Acholeplasma laidlawii, UniProt A9NFB2 1-137, looked up)
chain: MLSLLNKNRSNNDDFFEDFNVLNPVTTSNLMRTDIKETQNGYSLSVELPGFKKEDVKVSLEDGYLTIEAHTSKNSETKDQATKYIRKERYEGTMKRSYYVGNLHLDEINGTFENGMLHIELPKETKKEPEKRYLELK
notes: AlIbpA of Acholeplasma laidlawii PG8 with F11F12 substituted by N11N12, complete N-terminus length kept; source: E. coli BL21(DE3), purified (Ni-NTA); not shown: His6, N-terminal, kept
**Q.** For B3, which “stoichiometry N” value [11] is on record?
**A.** ~24

**Q.** What about the “fraction of the protein in I peak of the elution profile” value [12] of the same molecule?
**A.** 8 ± 1.7%

**Q.** And the “fraction of the protein in II peak of the elution profile” value [12]?
**A.** 88 ± 12.2%

B4: AlIbpAΔN25 (domain or fragment, Acholeplasma laidlawii, UniProt A9NFB2 26-137, looked up)
chain: TTSNLMRTDIKETQNGYSLSVELPGFKKEDVKVSLEDGYLTIEAHTSKNSETKDQATKYIRKERYEGTMKRSYYVGNLHLDEINGTFENGMLHIELPKETKKEPEKRYLELK
notes: AlIbpA of Acholeplasma laidlawii PG8 with 25 N-terminal amino acids removed (lacks both (W/F)(D/F)PF-like motifs); source: E. coli BL21(DE3), purified (Ni-NTA); not shown: His6, N-terminal, kept
**Q.** What does the source list for B4?
**A.** fraction of the protein in I peak of the elution profile [12]: 77 ± 21.3%; fraction of the protein in II peak of the elution profile [12]: 12 ± 2.4%

B5: AlIbpASEPΔN25 (domain or fragment, Acholeplasma laidlawii, UniProt A9NFB2 26-137, looked up)
chain: TTSNLMRTDIKETQNGYSLSVELPGFKKEDVKVSLEDGYLTIEAHTSKNSETKDQATKYIRKERYEGTMKRSYYVGNLHLDEINGTFENGMLHIELPKETKKEPEKRYSEPK
notes: AlIbpA of Acholeplasma laidlawii PG8 lacking 25 N-terminal amino acids and with LEL substituted by SEP (L134S, L136P); source: E. coli BL21(DE3), purified (Ni-NTA); not shown: His6, N-terminal, kept
**Q.** Which “fraction of the protein in I peak of the elution profile” value [12] does the source give for B5 here?
**A.** 69 ± 15.5%

**Q.** And the “fraction of the protein in II peak of the elution profile” value [12]?
**A.** 23 ± 3.2%

B6: AlIbpAΔN12 (domain or fragment, Acholeplasma laidlawii, UniProt A9NFB2 13-137, looked up)
chain: DDFFEDFNVLNPVTTSNLMRTDIKETQNGYSLSVELPGFKKEDVKVSLEDGYLTIEAHTSKNSETKDQATKYIRKERYEGTMKRSYYVGNLHLDEINGTFENGMLHIELPKETKKEPEKRYLELK
notes: AlIbpA of Acholeplasma laidlawii PG8 lacking the first 12 amino acid residues; source: E. coli BL21(DE3), purified (Ni-NTA); not shown: His6, N-terminal, kept
**Q.** For B6, which “fraction of the protein in I peak of the elution profile” value [12] is on record?
**A.** 88 ± 17.1%

**Q.** What about the “fraction of the protein in II peak of the elution profile” value [12] of the same molecule?
**A.** 10 ± 1.1%

B7: AlIbpASEPΔN12 (domain or fragment, Acholeplasma laidlawii, UniProt A9NFB2 13-137, looked up)
chain: DDFFEDFNVLNPVTTSNLMRTDIKETQNGYSLSVELPGFKKEDVKVSLEDGYLTIEAHTSKNSETKDQATKYIRKERYEGTMKRSYYVGNLHLDEINGTFENGMLHIELPKETKKEPEKRYSEPK
notes: AlIbpA of Acholeplasma laidlawii PG8 lacking 12 N-terminal amino acids and with LEL substituted by SEP (L134S, L136P); source: E. coli BL21(DE3), purified (Ni-NTA); not shown: His6, N-terminal, kept
**Q.** B7 was tested. Which “fraction of the protein in I peak of the elution profile” value [12] did it give?
**A.** 2 ± 0.8%

**Q.** What about the “fraction of the protein in II peak of the elution profile” value [12] of the same molecule?
**A.** 59 ± 10.1%
